One may read the pKa as the pH at which an ionisable group is half protonated. Low readings indicate a group that gives up its proton readily, high ones a group that holds its proton tightly.

One data set concerns the target Asp121 (UniProt position 121, AYRYVDWLLTV). The experiment in a line: UV-vis. Particulars: 3-mix buffer (starting at pH ca. 12, adjusted downward with HCl); retinal-bound pigment, unphotolysed state; light or dark adaptation not stated.
The target in data set [1] is T1, Gloeobacter rhodopsin (GR, Gloeorhodopsin) (Gloeobacter violaceus, UniProt Q7NP59).
T1 construct: gene gll0198
T1 sequence (Q7NP59 entry or part of it): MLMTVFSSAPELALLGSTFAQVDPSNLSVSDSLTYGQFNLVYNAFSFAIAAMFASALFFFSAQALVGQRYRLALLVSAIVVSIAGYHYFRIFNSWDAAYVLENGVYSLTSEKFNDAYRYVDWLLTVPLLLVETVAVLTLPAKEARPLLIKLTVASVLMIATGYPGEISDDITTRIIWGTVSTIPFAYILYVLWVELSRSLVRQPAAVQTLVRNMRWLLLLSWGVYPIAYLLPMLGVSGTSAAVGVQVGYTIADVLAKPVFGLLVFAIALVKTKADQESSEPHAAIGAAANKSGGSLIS
The experiment in a line: UV/VIS absorption of purified pigment. Format: binding. To be noted: covalent (protonated Schiff base, Lys257); 50 mM Tris pH 7, 150 mM NaCl, 0.02% DDM.

Molecule “Gloeobacter rhodopsin (GR, Gloeorhodopsin) (Gloeobacter violaceus PCC 7421)” came in with a pKa with Asp121 of 5.9. With `CC1=C(/C=C/C(C)=C/C=C/C(C)=C/C=O)C(C)(C)CCC1` [all-trans retinal], the “UV/VIS absorption of purified pigment” value in data set [1] was “expressed in Escherichia coli and bound all-trans retinal to form a pigment”.

Values taken from publication PMC4210194, “Cyanobacterial Light-Driven Proton Pump, Gloeobacter Rhodopsin: Complementarity between Rhodopsin-Based Energy Production and Photosynthesis” (PLoS ONE, 2014).
